Experimental data from US20260061032A1 (GI INNOVATION, published 2026).

T1: hIL-2Rα (human, UniProt P01589 22-213)
T1 construct: also called hIL-2Ra; IL-2 receptor alpha chain
T1 sequence (looked up): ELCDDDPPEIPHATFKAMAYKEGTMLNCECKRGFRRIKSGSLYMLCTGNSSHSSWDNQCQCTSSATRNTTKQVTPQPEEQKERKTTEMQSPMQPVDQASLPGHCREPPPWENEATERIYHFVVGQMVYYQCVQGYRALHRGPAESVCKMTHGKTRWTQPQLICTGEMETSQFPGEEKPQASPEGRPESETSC

T2: IL-2Rβγ on HEK-BLUE IL-2 reporter cells (UniProt P14784 27-551; P31785 23-369)
T2 sequence (looked up) 1: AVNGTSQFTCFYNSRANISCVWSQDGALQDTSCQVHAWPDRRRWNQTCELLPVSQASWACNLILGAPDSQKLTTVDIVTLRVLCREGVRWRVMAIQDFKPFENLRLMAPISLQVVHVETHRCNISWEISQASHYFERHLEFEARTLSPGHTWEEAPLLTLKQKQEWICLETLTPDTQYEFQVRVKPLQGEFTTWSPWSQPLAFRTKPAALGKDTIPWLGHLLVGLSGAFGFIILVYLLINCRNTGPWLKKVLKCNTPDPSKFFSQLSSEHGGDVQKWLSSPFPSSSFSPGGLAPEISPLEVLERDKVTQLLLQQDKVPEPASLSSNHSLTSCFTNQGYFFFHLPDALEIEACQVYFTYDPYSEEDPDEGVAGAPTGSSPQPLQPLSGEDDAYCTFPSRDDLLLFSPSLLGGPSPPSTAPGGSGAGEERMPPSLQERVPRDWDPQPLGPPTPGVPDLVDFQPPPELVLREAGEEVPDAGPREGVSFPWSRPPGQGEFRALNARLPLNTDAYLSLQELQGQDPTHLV
T2 sequence (looked up) 2: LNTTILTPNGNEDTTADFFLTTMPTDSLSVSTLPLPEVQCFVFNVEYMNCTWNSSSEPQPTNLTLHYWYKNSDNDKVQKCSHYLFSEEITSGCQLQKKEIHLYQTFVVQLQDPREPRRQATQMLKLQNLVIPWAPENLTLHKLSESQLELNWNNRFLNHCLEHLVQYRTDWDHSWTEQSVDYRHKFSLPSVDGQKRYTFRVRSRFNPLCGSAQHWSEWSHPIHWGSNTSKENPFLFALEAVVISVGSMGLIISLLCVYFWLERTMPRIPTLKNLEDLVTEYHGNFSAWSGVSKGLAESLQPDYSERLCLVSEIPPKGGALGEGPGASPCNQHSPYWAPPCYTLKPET

T3: hCD73 (human, UniProt P21589 27-549, limits assumed)
T3 sequence: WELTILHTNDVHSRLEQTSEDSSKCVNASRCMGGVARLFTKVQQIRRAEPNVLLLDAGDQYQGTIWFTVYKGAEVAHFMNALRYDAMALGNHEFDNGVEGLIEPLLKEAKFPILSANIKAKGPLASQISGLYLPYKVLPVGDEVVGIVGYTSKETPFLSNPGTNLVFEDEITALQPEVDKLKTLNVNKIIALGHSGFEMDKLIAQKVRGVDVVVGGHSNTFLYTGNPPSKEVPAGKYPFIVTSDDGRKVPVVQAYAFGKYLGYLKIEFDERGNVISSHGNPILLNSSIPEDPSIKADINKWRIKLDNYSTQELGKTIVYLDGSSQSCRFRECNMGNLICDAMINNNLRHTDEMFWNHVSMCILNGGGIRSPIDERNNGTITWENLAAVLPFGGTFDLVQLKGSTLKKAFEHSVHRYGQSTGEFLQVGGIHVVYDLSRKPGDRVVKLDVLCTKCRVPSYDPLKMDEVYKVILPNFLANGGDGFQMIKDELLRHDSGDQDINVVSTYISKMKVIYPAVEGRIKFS

T4: hIL-2Rαβγ on CTLL-2 cells (human, UniProt P01589 22-272; P14784 27-551; P31785 23-369)
T4 sequence (looked up) 1: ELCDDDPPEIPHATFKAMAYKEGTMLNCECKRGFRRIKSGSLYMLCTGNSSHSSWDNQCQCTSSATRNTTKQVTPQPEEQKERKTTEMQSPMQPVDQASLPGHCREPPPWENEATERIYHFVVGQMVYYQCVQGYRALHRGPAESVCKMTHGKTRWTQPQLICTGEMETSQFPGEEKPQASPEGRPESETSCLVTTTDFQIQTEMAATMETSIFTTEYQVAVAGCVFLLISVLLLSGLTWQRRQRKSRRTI
T4 sequence (looked up) 2: T2 sequence (looked up) 1
T4 sequence (looked up) 3: T2 sequence (looked up) 2

T5: membrane-bound human CD73 (human, UniProt P21589 27-549)
T5 sequence: T3 sequence

B1: GI-108B1 (Anti-CD73 Ab-hIgG4 Fc-hIL2v3 fusion protein dimer) (antibody)
heavy: QVQLVQSGAEVKKPGSSVKVSCKFSGGSFTSYSFSWVRQAPGQGLEWMGRIIPVLTTTDYAQKFRDRVTITADESTSTAYMELSGLRSEDTAVYYCASGLKKNWYFDLWGRGALITVSSASTKGPSVFPLAPCSRSTSESTAALGCLVKDYFPEPVTVSWNSGALTSGVHTFPAVLQSSGLYSLSSVVTVPSSSLGTKTYTCNVDHKPSNTKVDKRVESKYGPPCPPCPAPEAAGGPSVFLFPPKPKDQLMISRTPEVTCVVVDVSQEDPEVQFNWYVDGVEVHNAKTKPREEQFNSTYRVVSVLTVLHQDWLNGKEYKCKVSNKGLPSSIEKTISKAKGQPREPQVYTLPPSQEEMTKNQVSLTCLVKGFYPSDIAVEWESNGQPENNYKTTPPVLDSDGSFFLYSRLTVDKSRWQEGNVFSCSVLHEALHNHYTQKSLSLSLGGGGGSGGGGSAPTSSSTKKTQLQLEHLLLDLQMILNGINNYKNPKLTAMLTAKFYMPKKATELKHLQCLERELKPLEEVLNLAQSKNFHLRPRDLISNINVIVLELKGSETTFMCEYADETATIVEFLNRWITFCQSIISTLT
light: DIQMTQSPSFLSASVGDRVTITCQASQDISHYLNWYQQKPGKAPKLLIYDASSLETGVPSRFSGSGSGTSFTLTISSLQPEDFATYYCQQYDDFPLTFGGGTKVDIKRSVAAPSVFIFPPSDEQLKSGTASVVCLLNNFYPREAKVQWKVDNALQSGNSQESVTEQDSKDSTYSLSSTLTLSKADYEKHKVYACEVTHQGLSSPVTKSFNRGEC
notes: IgG4 anti-CD73 antibody with the IL-2 variant fused to the C-terminus of each heavy chain; expressed in CHO cells, purified as a dimer
B2: GI-108A1 (AHP04167) (Anti-CD73 sdAb-hIgG4 Fc-hIL2v3 fusion protein dimer) (Fc fusion)
chain: EVQLVESGGGLVQAGGSLRLSCVVSGRTFSNYHMGWFRQAPGKEREFVAVIGRSGGPTYYADSVKGRFTISRDNAKNTVYLQMNSLKPEDTAVYYCAGDWRNSDSPSKLKPVYDYWGQGTQVTVSSGGGGSAESKYGPPCPPCPAPEAAGGPSVFLFPPKPKDQLMISRTPEVTCVVVDVSQEDPEVQFNWYVDGVEVHNAKTKPREEQFNSTYRVVSVLTVLHQDWLNGKEYKCKVSNKGLPSSIEKTISKAKGQPREPQVYTLPPSQEEMTKNQVSLTCLVKGFYPSDIAVEWESNGQPENNYKTTPPVLDSDGSFFLYSRLTVDKSRWQEGNVFSCSVLHEALHNHYTQKSLSLSLGGGGGSGGGGSGGGGSAPTSSSTKKTQLQLEHLLLDLQMILNGINNYKNPKLTAMLTAKFYMPKKATELKHLQCLERELKPLEEVLNLAQSKNFHLRPRDLISNINVIVLELKGSETTFMCEYADETATIVEFLNRWITFCQSIISTLT
notes: Homodimer through hinge cysteines
B3: GI-108A1 (AHF10240) (Anti-CD73 sdAb-hIgG4 Fc-hIL2v3 fusion protein dimer) (Fc fusion)
chain: EVQLVESGGGVVQTGGSLRLSCAASGRTFTHLAMGWFRQAPGKEREFVAAISNSGAGTQFADSVKGRFTISRDNAKNTVYLQMNSLKPEDTAVYYCAADWGTRDSPSKLNAVYDYWGRGTQVTVSSGGGGSAESKYGPPCPPCPAPEAAGGPSVFLFPPKPKDQLMISRTPEVTCVVVDVSQEDPEVQFNWYVDGVEVHNAKTKPREEQFNSTYRVVSVLTVLHQDWLNGKEYKCKVSNKGLPSSIEKTISKAKGQPREPQVYTLPPSQEEMTKNQVSLTCLVKGFYPSDIAVEWESNGQPENNYKTTPPVLDSDGSFFLYSRLTVDKSRWQEGNVFSCSVLHEALHNHYTQKSLSLSLGGGGGSGGGGSGGGGSAPTSSSTKKTQLQLEHLLLDLQMILNGINNYKNPKLTAMLTAKFYMPKKATELKHLQCLERELKPLEEVLNLAQSKNFHLRPRDLISNINVIVLELKGSETTFMCEYADETATIVEFLNRWITFCQSIISTLT
notes: as for B2

The binders below were run against T1, hIL-2Rα (assay: SPR, Biacore T200; hIL-2Rα on CM5 chip through His capture kit, binder as analyte).
Description: To quantitatively analyze the binding affinities to CD73 and IL-2 receptors of […] and GI-108B1, in which the anti-CD73 antibody that specifically binds to CD73 was linked to the IL-2 variant, and Aldesleukin (trade name: PROLEUKIN®, Novartis), the binding affinities were measured using SPR (surface plasmon resonance). Using a BIACORE™ T200 instrument (Cytiva), the binding affinities of GI-108A1 (AHF10240), GI-108A1 (AHP04167) and GI-108B1 to hCD73, cyCD73, mCD73, hIL-2Rα, hIL-2Rβ, and hIL-2Rβγ were analyzed. Oleclumab (Astrazeneca), produced on order from Ybiologics, Inc., was used as a control.
To analyze the binding affinity to hIL-2Ra, hIL-2Ra was […] immobilized on Sensor Chip CM5 using a His capture kit (Cytiva, USA). Each of GI-108A1 (AHF10240), GI-108A1 (AHP04167), GI-108B1 and PROLEUKIN®, diluted in HBS-EP+ buffer, was then applied for 1 minute, followed by analysis of association and dissociation. In addition, the binding affinities to hIL-2RB and hIL-2Rβγ were measured by a three-step analysis method including treating Sensor Chip SA (Cytiva, USA) with biotinylated CD73, and then binding each of GI-108A1 (AHF10240), GI-108A1 (AHP04167), GI-108B1 and PROLEUKIN® to CD73, followed by treatment with each of hIL-2RB and hIL-2Rβγ diluted in HBS-P+ buffer (Cytiva, USA). For hIL-2RB, association was performed for 1 minute and dissociation for 1 minute, and for hIL-2Rβγ, association was performed for 5 minutes and dissociation for 2 hours at each concentration, in a single cycle kinetics analysis. Each sensorgram was normalized and subtracted compared to a blank cell to calculate affinity.

Binder	binding result
B1	no binding
B2	no binding
B3	no binding

What follows are binders tested against T2, IL-2Rβγ on HEK-BLUE IL-2 reporter cells (assay: cell-based or functional assay).

Binder	EC50, SEAP reporter (JAK-STAT pathway activation) in HEK-BLUE IL-2 reporter cells [pM]
B1	1.28
B2	3.94
B3	2.63

What follows are binders tested against T3, hCD73 (assay: cell-based or functional assay).

Binder	IC50, inhibition of soluble CD73 enzyme activity (AMP-Glo assay, recombinant human CD73) [pM]
B1	126
B2	102
B3	60

Each binder was assayed against T4, hIL-2Rαβγ on CTLL-2 cells (assay: cell-based or functional assay).

Binder	EC50, CTLL-2 cell proliferation (WST-1 absorbance) [pM]	EC50 of CTLL-2 cell proliferation, relative to PROLEUKIN [fold]
B1	1700	20
B2	3930	20
B3	2020	20

The binders below were run against T5, membrane-bound human CD73 (assay: cell-based or functional assay).

Binder	IC50, inhibition of membrane-bound CD73 enzyme activity on MDA-MB-231 cells (adenosine assay) [pM]
B1	3370
B2	5580
B3	2750
